Measured values reported in paper PMC4111604, “Structural Characterization of the Saccharomyces cerevisiae THO Complex by Small-Angle X-Ray Scattering” (PLoS ONE, 2014).

B1: Thp2p with C-terminal 6xHis tag (isolated protein) (natural protein, Saccharomyces cerevisiae, UniProt O13539 1-261, looked up)
chain: MTKEEGRTYFESLCEEEQSLQESQTHLLNILDILSVLADPRSSDDLLTESLKKLPDLHRELINSSIRLRYDKYQTREAQLLEDTKTGRDVAAGVQNPKSISEYYSTFEHLNRDTLRYINLLKRLSVDLAKQVEVSDPSVTVYEMDKWVPSEKLQGILEQYCAPDTDIRGVDAQIKNYLDQIKMARAKFGLENKYSLKERLSTLTKELNHWRKEWDDIEMLMFGDDAHSMKKMIQKIDSLKSEINAPSESYPVDKEGDIVLE
notes: Thp2p, Saccharomyces cerevisiae; pET-30 Ek/LIC vector; purified without TEV cleavage; also called isolated Thp2p; source: E. coli Rosetta (DE3), purified (Ni-NTA, Source 15Q, Superdex 200); not shown: 6xHis, C-terminal, kept
B2: Mft1pΔC336-392 with C-terminal 6xHis tag (isolated protein) (domain or fragment, Saccharomyces cerevisiae, UniProt P33441 1-335, looked up)
chain: MPLSQKQIDQVRTKVHYSEVDTPFNKYLDILGKVTKLTGSIINGTLSNDDSKIEKLTEQNISQLKESAHLRFLDLQSSIDTKKVADENWETCQQETLAKLENLKDKLPDIKSIHSKLLLRIGKLQGLYDSVQVINREVEGLSEGRTSLVVTRAEWEKELGTDLVKFLIEKNYLKLVDPGLKKDSSEERYRIYDDFSKGPKELESINASMKSDIENVRQEVSSYKEKWLRDAEIFGKITSIFKEELLKRDGLLNEAEGDNIDEDYESDEDEERKERFKRQRSMVEVNTIENVDEKEESDHEYDDQEDEENEEEDDMEVDVEDIKEDNEVDGESSQQ
notes: pET-30 Ek/LIC vector; purified without TEV cleavage; also called isolated Mft1p; source: E. coli Rosetta (DE3), purified (Ni-NTA, Source 15Q, Superdex 200); not shown: 6xHis, C-terminal, kept

Target: the molecule itself
Experiment: SAXS; purified proteins or co-expressed, co-purified complexes in solution; 50 mM Tris-Cl pH 8.0, 100 mM KCl, 5 mM MgCl2, 5 mM 2-mercaptoethanol; 10°C or 25°C; 3-6 concentrations between 7.8 and 0.15 mg/ml; homodimers told from measurements at low concentrations

Row | Protein | stoichiometry N
1 | B1 | 2
2 | B2 | 2
